B1: TPP-19861 (antibody, V domains shown)
VH: EVQLLESGGGLVQPGGSLRLSCAASGFTFSSYAMHWVRQAPGKGLEWVSVISYDGSYKYYADSVKGRFTISRDNSKNTLYLQMNSLRAEDTAVYYCAAGVPDYWGQGTLVTVSS
VL: QSVLTQPPSASGTPGQRVTISCTGSSSNIGAGYDVHWYQQLPGTAPKLLIYSNNERPSGVPDRFSGSKSGTSASLAISGLRSEDEADYYCAAWDDSLNGPVFGGGTKLTVL
B2: TPP-19866 (antibody, V domains shown)
VH: B1 VH with A33G, S56G
VL: B1 VL
B3: TPP-19864 (antibody, V domains shown)
VH: B1 VH with A33G, Y53G
VL: B1 VL
B4: TPP-19867 (antibody, V domains shown)
VH: B1 VH with A33G, Y57S
VL: B1 VL
B5: TPP-19865 (antibody, V domains shown)
VH: B1 VH with A33G, D54S
VL: B1 VL
B6: TPP-19862 (antibody, V domains shown)
VH: B1 VH with A33G, H35S
VL: B1 VL
B7: TPP-19868 (antibody, V domains shown)
VH: B1 VH with A33G, K58T
VL: B1 VL
B8: TPP-19872 (antibody, V domains shown)
VH: B1 VH with A33G, S49A
VL: B1 VL
B9: TPP-19873 (antibody, V domains shown)
VH: B1 VH with A33G, Y57N
VL: B1 VL
B10: TPP-19863 (antibody, V domains shown)
VH: B1 VH with A33G, V50A
VL: B1 VL
B11: TPP-19874 (antibody, V domains shown)
VH: B1 VH with A33G, A98R
VL: B1 VL
B12: TPP-31313 (antibody, IgG4, V domains shown)
VH: QVQLVESGGGVVQPGRSLRLSCAASGFTFSHYDMHWVRQAPGKGLEWVAVISYEGSNKFYADSVKGRFTISRDNSKNTLYLQMNSLRAEDTAVYYCARTPGSHFDYWGQGTLVTVSS
VL: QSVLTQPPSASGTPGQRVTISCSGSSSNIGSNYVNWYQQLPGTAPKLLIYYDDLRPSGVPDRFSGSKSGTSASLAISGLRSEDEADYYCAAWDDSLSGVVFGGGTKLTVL
notes: hIgG4 SPLE, lambda; also called FB; fundamental backbone
B13: TPP-31317 (antibody, IgG4, V domains shown)
VH: B12 VH with R16G
VL: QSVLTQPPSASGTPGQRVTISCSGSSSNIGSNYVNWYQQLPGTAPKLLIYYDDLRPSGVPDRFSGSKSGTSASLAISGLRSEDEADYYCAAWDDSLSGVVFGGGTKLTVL
notes: hIgG4 SPLE, lambda; FB - 1, back mutation VH-R16G
B14: TPP-31320 (antibody, IgG4, V domains shown)
VH: B12 VH with A49G
VL: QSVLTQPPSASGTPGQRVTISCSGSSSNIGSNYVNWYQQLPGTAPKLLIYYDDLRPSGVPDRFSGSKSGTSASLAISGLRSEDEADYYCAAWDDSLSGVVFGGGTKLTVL
notes: hIgG4 SPLE, lambda; FB - 1, back mutation VH-A49G
B15: TPP-31316 (antibody, IgG4, V domains shown)
VH: B12 VH with V11L
VL: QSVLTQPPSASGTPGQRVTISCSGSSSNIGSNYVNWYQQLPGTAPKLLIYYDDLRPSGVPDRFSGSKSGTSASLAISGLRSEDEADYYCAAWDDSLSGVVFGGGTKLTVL
notes: hIgG4 SPLE, lambda; FB - 1, back mutation VH-V11L
B16: TPP-31322 (antibody, IgG4, V domains shown)
VH: B12 VH
VL: QSVLTQPPSASGTPGQRVTISCSGSSSNIGNNYVNWYQQLPGTAPKLLIYYDDLRPSGVPDRFSGSKSGTSASLAISGLRSEDEADYYCAAWDDSLSGVVFGGGTKLTVL
notes: hIgG4 SPLE, lambda; FB - 1, back mutation VL-S31N
B17: TPP-31314 (antibody, IgG4, V domains shown)
VH: B12 VH with Q1E
VL: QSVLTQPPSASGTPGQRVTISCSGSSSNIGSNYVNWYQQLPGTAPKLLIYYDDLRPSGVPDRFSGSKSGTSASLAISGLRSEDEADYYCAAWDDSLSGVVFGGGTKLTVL
notes: hIgG4 SPLE, lambda; FB - 1, back mutation VH-Q1E
B18: TPP-31318 (antibody, IgG4, V domains shown)
VH: B12 VH with H35N
VL: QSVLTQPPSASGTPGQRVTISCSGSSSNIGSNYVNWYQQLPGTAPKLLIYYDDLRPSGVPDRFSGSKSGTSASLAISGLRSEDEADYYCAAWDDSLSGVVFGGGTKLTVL
notes: hIgG4 SPLE, lambda; FB - 1, back mutation VH-H35N
B19: TPP-31324 (antibody, IgG4, V domains shown)
VH: B12 VH
VL: B16 VL with N31S, R55L
notes: hIgG4 SPLE, lambda; FB - 1, back mutation VL-R55L
B20: TPP-31321 (antibody, IgG4, V domains shown)
VH: B12 VH with S63F
VL: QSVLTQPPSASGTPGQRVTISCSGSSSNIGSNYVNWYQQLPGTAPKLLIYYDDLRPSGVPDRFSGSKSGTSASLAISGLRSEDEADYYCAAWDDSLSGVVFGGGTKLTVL
notes: hIgG4 SPLE, lambda; FB - 1, back mutation VH-S63F
B21: TPP-31323 (antibody, IgG4, V domains shown)
VH: B12 VH
VL: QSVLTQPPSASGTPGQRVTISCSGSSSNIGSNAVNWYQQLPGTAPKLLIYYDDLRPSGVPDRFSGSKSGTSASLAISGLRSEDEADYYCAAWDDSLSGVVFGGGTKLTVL
notes: hIgG4 SPLE, lambda; FB - 1, back mutation VL-Y33A
B22: TPP-31315 (antibody, IgG4, V domains shown)
VH: B12 VH with V5L
VL: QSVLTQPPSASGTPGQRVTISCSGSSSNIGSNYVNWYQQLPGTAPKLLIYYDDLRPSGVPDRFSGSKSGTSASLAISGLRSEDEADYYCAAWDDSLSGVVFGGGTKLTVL
notes: hIgG4 SPLE, lambda; FB - 1, back mutation VH-V5L
B23: TPP-31326 (antibody, IgG4, V domains shown)
VH: B12 VH with F59Y
VL: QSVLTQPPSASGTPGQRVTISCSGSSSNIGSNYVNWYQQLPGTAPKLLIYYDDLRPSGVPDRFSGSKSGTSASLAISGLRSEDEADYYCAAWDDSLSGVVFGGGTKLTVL
notes: hIgG4 SPLE, lambda; FB + 1, plus VH-F59Y
B24: TPP-31319 (antibody, IgG4, V domains shown)
VH: B12 VH with V37L
VL: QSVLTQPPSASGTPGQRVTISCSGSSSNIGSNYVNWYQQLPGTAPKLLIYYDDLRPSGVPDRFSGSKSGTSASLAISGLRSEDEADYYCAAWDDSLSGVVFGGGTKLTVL
notes: hIgG4 SPLE, lambda; FB - 1, back mutation VH-V37L

We go through 24 molecules from patent publication US20240317847A1 (Bayer, published 2024).

Residue numbers refer to the chain shown, from its start. Numbers in names are those of the source.

In the first test the target is T1, human IL-11 (human, UniProt P20809 22-199).
T1 construct: bought from Invigate; also called hIL-11; hIL11
T1 sequence: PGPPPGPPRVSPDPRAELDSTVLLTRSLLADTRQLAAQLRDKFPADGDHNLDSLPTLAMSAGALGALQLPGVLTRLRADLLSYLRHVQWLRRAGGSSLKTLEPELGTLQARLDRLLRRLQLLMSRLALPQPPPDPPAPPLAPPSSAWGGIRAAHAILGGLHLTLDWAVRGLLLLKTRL
The test can be described thus: SPR, antibody captured, IL-11 as analyte. The protocol: (§1) Antibodies were captured via anti-mouse Fc IgGs (“Mouse antibody capture kit, Order No. BR100383, Cytiva) covalently amine coupled to a Series S CM5 sensor chip (Cytiva). The amine coupling was carried out according to the manufacturer's instructions using 1-ethyl-3-(3-dimethylaminopropyl) carbodiimide hydrochloride (EDC), N-hydroxysuccinimide (NHS) and ethanolamine HCl, pH 8.5 (“Amine Coupling Kit” BR-1000-50, Cytiva.). Human IL-11 (Invigate, e.g., lot #C121021-19), and murine IL-11 (Invigate, e.g., lot #C210819-09) were used as analytes. […] Based on that experiment an IL-11 concentration range was chosen to optimally determine kinetics and affinity of anti-IL-11 antibodies in multicycle kinetics mode. The sensor surface was regenerated with glycine pH 1.7 after each antigen injection. Obtained sensorgrams were double referenced (subtraction of reference flow cell signal and buffer injection) and were fitted to a 1:1 Langmuir binding model to derive kinetic data using the Biacore T200 Evaluation software or the Biacore Insight software.
(§2) Deviations from closest human germlines in CDR regions and FW regions and potential CMC relevant residues in CDR regions were adjusted by site directed mutagenesis following standard molecular protocols or purchased from DNA synthesis providers. The generated DNA constructs were expressed by transient transfection of mammalian cells and purified as described in Example 15. Antibodies were then tested for human IL-11 and murine IL-11 binding by SPR as described in Example 16.
Turning to B1, the affinity, expressed as Kd, was 17 nM.
B2 gave a Kd of 8.5 nM.
Still for that read-out and setting: for B3 the value was 13 nM; for B4, 27 nM; for B5, 25 nM.
The same measure, in the same setting: as for B6, the figure is 19 nM; as for B7, 6.2 nM; as for B8, 5.5 nM.
Molecule B9 returned a Kd of 21 nM.
In the case of B10, the Kd turned out to be 4.7 nM.
On the same count and under the same terms, for B11 the value was 99 nM.

For the next test, the target named is T2, murine IL-11 (mouse, UniProt P47873 22-199).
T2 construct: bought from Invigate; also called mIL-11; mIL11
T2 sequence: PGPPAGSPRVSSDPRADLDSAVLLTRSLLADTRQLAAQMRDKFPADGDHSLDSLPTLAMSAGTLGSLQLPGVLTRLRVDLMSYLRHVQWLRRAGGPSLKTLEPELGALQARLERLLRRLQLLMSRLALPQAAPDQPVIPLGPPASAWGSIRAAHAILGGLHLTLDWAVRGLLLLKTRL
The test can be described thus: SPR, antibody captured, IL-11 as analyte. The protocol:
as §1, §2
In turn, B1 came in with a dissociation constant Kd of 28 nM.
Same read-out and setting: for B2 the value was 1.4 nM.
Turning to B3, the binding result was “no binding”.
Consider B4, for which the Kd was determined as 3.4 nM.
B5 yielded a Kd of 3.6 nM.
Same read-out and setting: as for B6, the figure is 4.7 nM.
On the same count and under the same terms, for B7 the value was 0.72 nM; for B8, 0.47 nM; for B9, 4 nM.
In the case of B10, the Kd was determined as 0.64 nM.
For the molecule B11, the Kd came out at 9.9 nM.

The target of another test is T1, human IL-11. Nature of the test: SPR, IgG captured via anti-human Fc, IL-11 as analyte. The protocol:
(§3) Antibody binding affinity to hIL-11 (Invigate, Germany, e.g., lot #C121021-19) and mIL-11 (Invigate, Germany, e.g., lot #C210819-09) was detected using Biacore 8K. Each antibody was captured on an anti-human IgG Fc antibody immobilized CM5 sensor chip (GE). hIL-11 and mIL-11 at different concentrations (0, 5, 15.82 and 50 nM) in 1×HBS-EP+ (pH 7.4) (GE healthcare) were injected over the sensor chip at a flow rate of 30 μL/min for an association phase of 120 s, followed by 200 s dissociation phase. The chip was then regenerated by 10 mM Glycine, pH 1.5 after each binding cycle.
(§4) The sensorgrams of blank surface and buffer channel were subtracted from the test sensorgrams. The experimental data was fitted by 1:1 model using Langmiur analysis. Molecular weight of 19.3 kDa was used to calculate the molar concentration of human and mouse IL-11.
(§5) 16 AB were produced as described in Example 21 and binding of purified AB to human and mouse IL-11 was analyzed using SPR as described in Example 21.
B12: the Kd was 0.89 nM.
Same read-out and setting: for B13 the value was 0.83 nM; for B14, 0.95 nM; for B15, 0.85 nM.
Still for that read-out and setting: for B16 the value was 0.81 nM.
On the same count and under the same terms, for B17 the value was 0.87 nM; for B18, 0.89 nM; for B19, 0.79 nM.
As to B20, binding was characterised by a dissociation constant (Kd) of 0.85 nM.
Same read-out and setting: as for B21, the figure is 2.4 nM; as for B22, 0.87 nM.
Same read-out and setting: as for B23, the figure is 1.7 nM; as for B24, 0.83 nM.

The target of another test is T2, murine IL-11. The test is described as above. The protocol: as §3, §4, §5
B12 gave a Kd of 0.64 nM.
Take B13: the Kd came out at 0.58 nM.
Same read-out and setting: for B14 the value was 0.56 nM; for B15, 0.62 nM.
Same read-out and setting: for B16 the value was 0.69 nM.
Molecule B17 came in with a Kd of 0.59 nM.
On to B18, for which the Kd is 0.3 nM.
Same read-out and setting: for B19 the value was 0.5 nM; for B20, 0.67 nM; for B21, 1.7 nM.
B22 gave a dissociation constant Kd of 0.65 nM.
B23 displayed a Kd of 1.2 nM.
On the same count and under the same terms, for B24 the value was 0.59 nM.

The target in the next test is T1, human IL-11. The test can be described thus: cell-based or functional assay.
As to B12, the “IC50, RGA” value is 5.4 nM.
Regarding B13, the “IC50, RGA” value amounted to 2.9 nM.
The same measure, in the same setting: as for B14, the figure is 2.8 nM; as for B15, 3.2 nM; as for B16, 1.7 nM.
On the same count and under the same terms, as for B17, the figure is 2.4 nM; as for B18, 3.8 nM.
As for B19, the “IC50, RGA” value amounted to 2.9 nM.
On the same count and under the same terms, for B20 the value was 2.8 nM; for B21, 7.1 nM; for B22, 2.9 nM.
On the same count and under the same terms, as for B23, the figure is 3.6 nM; as for B24, 2.3 nM.

The target in the next test is T2, murine IL-11. Nature of the test: cell-based or functional assay.
In the case of B12, the “IC50, RGA” value came out at 1.6 nM.
The same measure, in the same setting: as for B13, the figure is 1.5 nM; as for B14, 1.1 nM; as for B15, 1.1 nM.
The same measure, in the same setting: for B16 the value was 1.4 nM; for B17, 1.2 nM; for B18, 1.2 nM.
As to B19, the “IC50, RGA” value was determined as 1 nM.
Still for that read-out and setting: for B20 the value was 1 nM.
The same measure, in the same setting: for B21 the value was 3.5 nM; for B22, 1.7 nM; for B23, 3.3 nM.
Regarding B24, the “IC50, RGA” value was found to be 1.6 nM.
